From article doi:10.1101/060434 (bioRxiv, 2016)

Target: the molecule itself
Assay: electron microscopy

B1: hepatitis E virus-like particle (HEV-LP) of the HEV ORF2 capsid protein, amino acids 368-606 (p239) (domain or fragment, UniProt P33426 368-606, looked up)
chain: IALTLFNLADTLLGGLPTELISSAGGQLFYSRPVVSANGEPTVKLYTSVENAQQDKGIAIPHDIDLGESRVVIQDYDNQHEQDRPTPSPAPSRPFSVLRANDVLWLSLTAAEYDQSTYGSSTGPVYVSDSVTLVNVATGAQAVARSLDWTKVTLDGRPLSTIQQYSKTFFVLPLRGKLSFWEAGTTKAGYPYNYNTTASDQLLVENAAGHRVAISTYTTSLGAGPVSISAVAVLAPHSV
binding result: binds
